Values of other authors in patent US20210244796A1, “COMPOSITIONS IN THE FORM OF AN INJECTABLE AQUEOUS SOLUTION COMPRISING AMYLIN AN AMYLIN RECEPTOR AGONIST OR AN AMYLIN ANALOG, AT LEAST ONE IONIC SPECIES AND AN AMPHOIPHILIC COMPOUNDS CONTAINING HYDRIPHOBIC RADICALS” (ADOCIA, priority 2018, published 2021).
Like-named read-outs stand apart in the source and are kept apart here.

In the case of `CC[C@H](C)[C@H](NC(=O)[C@@H]1CCCN1C(=O)CNC(=O)[C@H](Cc1ccccc1)NC(=O)[C@H](CC(N)=O)NC(=O)[C@H](CC(N)=O)NC(=O)[C@H](CO)NC(=O)[C@H](CO)NC(=O)[C@H](Cc1c[nH]cn1)NC(=O)[C@@H](NC(=O)[C@H](CC(C)C)NC(=O)[C@H](Cc1ccccc1)NC(=O)[C@H](CC(N)=O)NC(=O)[C@H](C)NC(=O)[C@H](CC(C)C)NC(=O)[C@H](CCCNC(=N)N)NC(=O)[C@H](CCC(N)=O)NC(=O)[C@@H](NC(=O)[C@H](C)NC(=O)[C@@H]1CSSC[C@H](NC(=O)[C@@H](N)CCCCN)C(=O)N[C@@H](CC(N)=O)C(=O)N[C@@H]([C@@H](C)O)C(=O)N[C@@H](C)C(=O)N[C@@H]([C@@H](C)O)C(=O)N1)[C@@H](C)O)C(C)C)C(=O)N[C@@H](CC(C)C)C(=O)N1CCC[C@H]1C(=O)N1CCC[C@H]1C(=O)N[C@H](C(=O)N[C@@H](CC(N)=O)C(=O)N[C@H](C(=O)NCC(=O)N[C@@H](CO)C(=O)N[C@@H](CC(N)=O)C(=O)N[C@H](C(=O)N[C@@H](Cc1ccc(O)cc1)C(N)=O)[C@@H](C)O)C(C)C)[C@@H](C)O` [pramlintide, reference compound], the “pH of the solution above which the peptide is described as shining” value (pramlintide formulated at acidic pH) is given as “greater than 5.5”.

In the case of “Amylin: 37 amino acid peptide co-stored and co-secreted with insulin (KCNTATCATQRLANFLVHSSNNFGAILSSTNVGSNTY; Islet amyloid polypeptide; UniProt P10997 34-70, looked up)”, the “Time for which amylin is stable” value (acidic pH) is listed as “about fifteen” and the “Time for which amylin is stable” value (neutral pH) is listed as “less than one”.
